± gives the uncertainty stated by the source.
Assay: amyloid nucleation score (Sup35N fusion, yeast selection) (log enrichment); library NNK2; higher = more nucleation; inactive = no reads after selection
In short: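 Libraries of peptides of 20 random codons fused to Sup35N were expressed in psi-negative yeast and induced 24 hours with 100 μM copper sulfate. Selection was 7 days at 30°C on medium lacking adenine and uracil, and plasmid inserts were Illumina-sequenced before and after selection. Nucleation score is the DiMSum log enrichment of output over input reads, centred on the mode score of non-aggregating sequences, and sequences with under 100 input reads were left out.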

Row | Substance | amyloid nucleation score
1 | LRNFSYIRQGGSRVSSASGY | -1.18 ± 1.1
2 | LRNGVPDADASSRYFWAAEW | 0.712 ± 0.24
3 | LRQGPTHFLYLGCYFVDAMR | 7.119 ± 0.066
4 | LRRKEVKWLCL | 0.754 ± 0.47
5 | LRSGGLFRDIMCRRDYVRCF | 1.23 ± 0.32
6 | LRSLINCYAKVICRTYRFVG | -0.885 ± 0.61
7 | LRSQSHR | 1.31 ± 0.33
8 | LRSWEGLSQAWRPCCVILHN | 0.48 ± 0.34
9 | LRTSSSYSFLEYIRS | -1.08 ± 1
10 | LRVGSCNVTSLMGNLVGLDS | 1.37 ± 0.42
11 | LRVMSSISDDNAQEFDDFCV | 3.75 ± 0.062
12 | LRVQGGWL | 1.49 ± 0.34
13 | LRYNADMVGCKFWWIPVWSL | -0.843 ± 0.42
14 | LRYRVMT | 1.23 ± 0.52
15 | LSAKWCTECNLAASRRLNIN | 0.034 ± 0.32
16 | LSDAMILNLRAIFSSISLLQ | -0.86 ± 0.78
17 | LSDCE | inactive
18 | LSDFEIFTLTIHSHLYHN | 1.66 ± 0.24
19 | LSEFDHYDWVSSSTLFGFCC | -1.13 ± 1.1
20 | LSESRRQVASASDLMKRRIP | 1.24 ± 0.66
21 | LSFFSLSIQSCMHGSLKIDS | -0.294 ± 1.1
22 | LSFLKVW | -0.654 ± 0.36
23 | LSFPHVLYFETCPCMARVVA | -0.081 ± 1.1
24 | LSGLRSFLRRWRGQVKPVLV | -0.133 ± 1
25 | LSGSY | -0.305 ± 1.1

Row | Substance | amyloid nucleation score
26 | LSHEFMIEW | -0.19 ± 0.62
27 | LSKHPYGCVL | 0.862 ± 0.66
28 | LSMEVRGMVATMVVTWNFVS | 0.07 ± 0.32
29 | LSRWKDRSRGWRGDAAPRIR | 0.539 ± 0.56
30 | LSSVILVLNNSVAFYILDAG | 3.83 ± 0.09
31 | LSTCCVKVVVCRDFIIVDKF | 6.57 ± 0.039
32 | LSVCLHHHNIAWDRCSGR | -0.469 ± 0.37
33 | LSVSDEVRQV | -0.466 ± 0.79
34 | LSYYKVIWGHLMVKYPTYRQ | -0.177 ± 0.32
35 | LTAGVYSSSWSDVS | 1.4 ± 0.14
36 | LTATFTNMGCTTGSKCLM | inactive
37 | LTATLAFLVSCFYCSL | 6.95 ± 0.028
38 | LTCLFPFWRWCIPAAIEFRR | 0.901 ± 0.28
39 | LTEDTMFG | -0.573 ± 0.76
40 | LTEVVMAILFSDDSRYIFCG | 1.41 ± 0.16
41 | LTFGCG | -0.903 ± 0.36
42 | LTFLYGVGVRFCRPSLVVQS | 0.2 ± 0.24
43 | LTGCAKLGSLKLSLAPVYVD | 0.811 ± 0.82
44 | LTGLFAGLKGKCLFTVNRGI | -0.318 ± 0.44
45 | LTLCSFRCTKLMR | 1.11 ± 0.25
46 | LTLHAVWI | -0.022 ± 0.27
47 | LTMLPDNVPTKALFSYLSVT | -1.24 ± 0.76
48 | LTPEFSVCGCRTEG | 2.65 ± 0.072
49 | LTPLICADNLD | -0.526 ± 0.35
50 | LTPNCGKVGGRMRGRILSGV | 0.787 ± 0.3

Row | Substance | amyloid nucleation score
51 | LTRRVGIFFHFG | 4.74 ± 0.05
52 | LTTSFANAWHFNFLGRPLH | 2.18 ± 0.18
53 | LTYLVADLL | -0.142 ± 0.79
54 | LVAALRV | -0.452 ± 0.39
55 | LVAHPLYGSTKWGN | -0.596 ± 0.79
56 | LVCYLMTMNSNGARSRGVPF | 5.99 ± 0.063
57 | LVFRGAVCDITRAG | -0.682 ± 0.76
58 | LVFTCGWSDTRE | 5.08 ± 0.089
59 | LVHYFICHVPFLIFRYDKVT | inactive
60 | LVKCRGATCLIVTSDRLLYV | inactive
61 | LVKCSVSVRGEILRFLRYMA | 0.26 ± 0.22
62 | LVNSKYDLGSSGSFDNRFAC | -0.242 ± 0.63
63 | LVQMISKILYNEE | inactive
64 | LVQMLVSV | -0.342 ± 1
65 | LVRGMDFHLNLDEKFFSATL | -1.05 ± 0.56
66 | LVRVGDFG | -0.267 ± 0.54
67 | LVSFGPLMDQGSCIALHSRR | 0.162 ± 0.31
68 | LVSFRKPILTSQ | 0.164 ± 0.8
69 | LVSVVNMVADSSRKSSQGEL | 4.875 ± 0.039
70 | LVSYSDVGWPLYWFCSVRVP | 1.24 ± 0.2
71 | LVTARQLARI | 0.121 ± 0.24
72 | LVVVRMGGIGLESFVAHGEV | 0.524 ± 0.35
73 | LVVWPMNQPLPLSNRPTPKR | 1.83 ± 0.3
74 | LVWIEMVSF | -0.544 ± 0.78
75 | LVYVWKDLAYMVLLHFRLFL | -1.16 ± 1.1

Row | Substance | amyloid nucleation score
76 | LWFGRSCGFGIGVYYRRPSL | -0.213 ± 0.48
77 | LWFGTIHNNTVGSNIDFTFT | 4.71 ± 0.092
78 | LWGFMCFFW | -1.41 ± 0.29
79 | LWIIPQELGLCLMCGVVCCV | -1.41 ± 0.75
80 | LWLLMYGSW | 2.4 ± 0.1
81 | LWLVYSESWSMYAMS | 1.19 ± 0.12
82 | LWMCKTFYGAGLSPVVK | -0.038 ± 1
83 | LWMVFSGNALEKYSSDFCHC | -1.22 ± 0.78
84 | LWVSSSLSL | -0.74 ± 0.45
85 | LWYGWCKRLYFVRCHYRVSM | -0.543 ± 0.55
86 | LYAVRPLTVGTKCYMMRGLL | -1.59 ± 0.49
87 | LYCQFSYVRCKPGKRSDLGW | 1.88 ± 0.23
88 | LYDFCVSYVSQNGLRLFVRT | -0.727 ± 0.45
89 | LYDIDWRFRHKDAHQCKVDR | -0.184 ± 1.1
90 | LYGGCRKWFTRTCFSFHMYR | 0.562 ± 0.81
91 | LYHETAENSSRTQTTRRWSF | -0.321 ± 1
92 | LYIET | -1.28 ± 0.63
93 | LYIIMMICIQSLFRYRGIKG | -0.975 ± 0.78
94 | LYLMSHTGFLSNTHIRLAPR | -0.291 ± 1.1
95 | LYLTRMFTTNAL | 0.806 ± 0.58
96 | LYLYPAMFVSWLSGLPTRFC | -0.406 ± 1.1
97 | LYMILNGYTLGSCFTVRDSF | 4.99 ± 0.078
98 | LYNEMVRSLVGAICRSRQGY | -0.297 ± 1.1
99 | LYPWRMTCYK | -1.34 ± 0.76
100 | LYQSYHELSFVTVHRSSKVD | 2.45 ± 0.15

Row | Substance | amyloid nucleation score
101 | LYRLSFSLFWERNRVHSFIR | -0.232 ± 1.1
102 | LYRRFRQRCIRERERLVHGL | 0.01 ± 0.38
103 | LYRVILLSSRHNGSNIWAEF | 0.127 ± 0.74
104 | LYRYSSG | inactive
105 | LYSWAFSS | inactive
106 | LYVFPCHILDDRCFLCGGWF | -0.353 ± 0.38
107 | MAAVSETHPGAEGSNRVVSE | 3.06 ± 0.07
108 | MAVLEMRDRWCDLLLTTSRV | 0.155 ± 0.21
109 | MCFAHVRNFSEW | 1.47 ± 0.15
110 | MCFFMAREEASRGAKGLAER | 1.66 ± 0.19
111 | MCGSDNYILGLFWVYFMTNF | inactive
112 | MCRYCLVWYGFLNYSTLTRG | -1.37 ± 0.62
113 | MCVGNYVLRFLALPPSGCNM | -0.806 ± 0.36
114 | MCWIVTFTRLCWLMFNSERC | inactive
115 | MDFSSLWGLHFVLCCVSWGR | 0.256 ± 1
116 | METAPTLNINVSDSQRPNVW | 0.71 ± 0.53
117 | MEVADC | 0.591 ± 0.35
118 | MFIGLLVLRLLFAYQNDKSY | 0.153 ± 0.79
119 | MFSNFLIRKEGRKKVAMVKK | -1.04 ± 0.33
120 | MFSSMSVLCKYILASWASHK | -0.58 ± 0.63
121 | MFTKDISGFLGVLGHVVVLG | -0.237 ± 0.63
122 | MFVRRKSVSMVEYWE | 0.054 ± 0.32
123 | MFYPRSSFSWDFPTFGLSLP | inactive
124 | MGGNLCVPRTLYSAIWLLSR | -1.23 ± 0.44
125 | MGLSAVQVFSRRCSFSGKWC | inactive

Row | Substance | amyloid nucleation score
126 | MGQLDGKACSICRSLVIIVY | 2.23 ± 0.073
127 | MGTPLNFGCQY | -1.26 ± 0.48
128 | MGYRFSGDLMEGRSTEWWRA | 0.836 ± 0.47
129 | MHEAH | 0.439 ± 0.46
130 | MHMYMRSGFLLLFVSWVREC | -0.958 ± 0.76
131 | MHPVANSGNSEHMFSMLY | 3.48 ± 0.09
132 | MHSLISELLLPNTIFGSAGI | -0.707 ± 0.76
133 | MIFCCTRK | 8.708 ± 0.078
134 | MIISTVMSGMNANSLVVWAY | 0.375 ± 0.21
135 | MIKHGYQWPCSLCT | 0.219 ± 0.46
136 | MIMEQSNNISNCLFVMQGPK | 7.143 ± 0.07
137 | MIMLDAEGLYIIPRGVSKFL | 1.87 ± 0.11
138 | MINLQYLVGNLAVGL | 1.37 ± 0.14
139 | MIRTHLRRIYNS | -1.26 ± 0.37
140 | MIVNYFWIRCAPLFWQAIPS | 3.63 ± 0.15
141 | MIWNCTVFFLGDGAPLCGLC | 8.5 ± 0.064
142 | MKGEMF | -0.345 ± 0.28
143 | MKNTVE | -0.803 ± 1
144 | MKPAWYIVNEWLSGTRLECM | -0.035 ± 0.49
145 | MKVPVRIRWVPLFSDFTYQV | -0.736 ± 0.36
146 | MKYLIVCDFCGLYSPCGFCF | 7.808 ± 0.037
147 | MLCCLCMMVCDR | 8.673 ± 0.032
148 | MLCRNIHRCKMHREPLGVFH | 0.578 ± 0.81
149 | MLDYFGLWSWARSSNYLEFK | -1.09 ± 0.31
150 | MLLSCYFVVNE | 6.37 ± 0.072

Row | Substance | amyloid nucleation score
151 | MLMRNFSNSNLLAENFMQMR | 0.138 ± 1.1
152 | MLQYWMPVLGWWAFMRNLAF | 1.71 ± 0.47
153 | MLRLFQYFLGTNFWGHQGFS | -0.724 ± 1.1
154 | MLSENADTRCLRMFVSDCQR | 1.26 ± 0.16
155 | MLSLVMRVGFNCFIT | 0.208 ± 1.1
156 | MLVEMYLFVNLCLYMRMSFR | 0.018 ± 0.5
157 | MLVWTNMFSTLYDISWKAPL | -1.02 ± 0.62
158 | MLWQFKWESGYVTLRARPN | inactive
159 | MLYSSR | -1.44 ± 0.44
160 | MMFTSQTGDLLFF | 4.89 ± 0.051
161 | MMNTKFINWDKMLDIGYRAD | 0.877 ± 0.8
162 | MMVGFLCK | 3.91 ± 0.07
163 | MMVYKGMPVLPCEYRVLY | -0.199 ± 0.36
164 | MNDLMYVVLSRCSMIGNCGS | 1.29 ± 0.17
165 | MNLWVMAFR | 6.502 ± 0.065
166 | MNMSEMSAYHFLFSGGSKLR | -0.21 ± 0.44
167 | MNPYLVGPFERVV | 0.061 ± 0.33
168 | MPGYYPMGSL | 0.427 ± 0.74
169 | MPQWKL | -0.205 ± 0.74
170 | MPYTCMGVFVAHMEATE | 0.316 ± 0.4
171 | MQRTIYFS | 0.767 ± 0.58
172 | MRFSCWADIVRGDLIPHFVV | 2.84 ± 0.09
173 | MRHMYRPPIVSLHRVAIGFM | -0.906 ± 0.63

Reference: the supplement of paper PMC12042874
